Columns and labels:
[1] = molecular target: BAP-tagged Histophilus somni Transferrin binding protein B (aa 21-643) (Histophilus somni strain H191); test: BLI
[2] = molecular target: caprine transferrin (goat); test: ELISA
[3] = molecular target: ovine transferrin (sheep); test: ELISA

Substance | fold lower affinity than for bovine transferrin [1] [fold] | absorbance signal relative to that with bovine transferrin [2] [fold] | absorbance signal relative to that with bovine transferrin [3] [fold]
ovine transferrin (ligand) | 3 | – | –
Histophilus somni Transferrin binding protein A 2 (receptor) | – | 0.25 | 0.25
caprine transferrin (ligand) | 15.7 | – | –
